Earlier results as cited in publication PMC10584158.

Biological target: IL-6 (Homo sapiens) (UniProt P05231)
Sequence (P05231 30-212): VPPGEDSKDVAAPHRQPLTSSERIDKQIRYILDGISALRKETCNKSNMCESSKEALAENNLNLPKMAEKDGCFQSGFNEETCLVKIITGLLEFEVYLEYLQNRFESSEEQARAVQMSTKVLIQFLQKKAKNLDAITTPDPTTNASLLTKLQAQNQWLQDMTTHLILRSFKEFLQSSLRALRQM

In the case of Clazakizumab, the Kd is given as 4 pM.
